Patent US20110311550A1

How the values were obtained:
Experiment in all cases: ELISA, lectin-captured E1E2 lysate, Ab 1 ug/ml
[1] = target: E1E2 complex (H77) with E1 mutation H298A (HCV genotype 1a, isolate H77) (UniProt P27958)
[2] = target: E1E2 complex (H77) with E1 mutation N305A (HCV genotype 1a, isolate H77) (UniProt P27958)
[3] = target: E1E2 complex (H77) with E1 mutation N196A/N325A (HCV genotype 1a, isolate H77) (UniProt P27958)
[4] = target: E1E2 complex (H77) with E1 mutation G225A (HCV genotype 1a, isolate H77) (UniProt P27958)
[5] = target: E1E2 complex (H77) with E1 mutation N209A (HCV genotype 1a, isolate H77) (UniProt P27958)
[6] = target: E1E2 complex (H77) with E2 mutation G635A (HCV genotype 1a, isolate H77) (UniProt P27958)
[7] = target: E1E2 complex (H77) with E1 mutation D321A (HCV genotype 1a, isolate H77) (UniProt P27958)
[8] = target: E1E2 complex (H77) with E1 mutation Y192A (HCV genotype 1a, isolate H77) (UniProt P27958)
[9] = target: E1E2 complex (H77) with E1 mutation N325A (HCV genotype 1a, isolate H77) (UniProt P27958)
[10] = target: E1E2 complex (H77) with E1 mutation T329A (HCV genotype 1a, isolate H77) (UniProt P27958)
[11] = target: E1E2 complex (H77) with E1 mutation Q302A (HCV genotype 1a, isolate H77) (UniProt P27958)
[12] = target: E1E2 complex (H77) with E1 mutation M323A (HCV genotype 1a, isolate H77) (UniProt P27958)
[13] = target: E1E2 complex (H77) with E1 mutation I212A (HCV genotype 1a, isolate H77) (UniProt P27958)
[14] = target: E1E2 complex (H77) with E1 mutation N196A/N209A (HCV genotype 1a, isolate H77) (UniProt P27958)
[15] = target: E1E2 complex (H77) with E1 mutation G282A (HCV genotype 1a, isolate H77) (UniProt P27958)
[16] = target: E1E2 complex (H77) with E1 mutation G311A (HCV genotype 1a, isolate H77) (UniProt P27958)
[17] = target: E1E2 complex (H77) with E1 mutation V227A (HCV genotype 1a, isolate H77) (UniProt P27958)
[18] = target: E1E2 complex (H77) with E1 mutation T204A (HCV genotype 1a, isolate H77) (UniProt P27958)
[19] = target: E1E2 complex (H77) with E1 mutation N196A (HCV genotype 1a, isolate H77) (UniProt P27958)
[20] = target: E1E2 complex (H77) with E1 mutation V194A (HCV genotype 1a, isolate H77) (UniProt P27958)
[21] = target: E1E2 complex (H77) with E2 mutation R630A (HCV genotype 1a, isolate H77) (UniProt P27958)
[22] = target: E1E2 complex (H77) with E1 mutation Y201A (HCV genotype 1a, isolate H77) (UniProt P27958)
[23] = target: E1E2 complex (H77) with E1 mutation N234A (HCV genotype 1a, isolate H77) (UniProt P27958)
[24] = target: E1E2 complex (H77) with E1 mutation F291A (HCV genotype 1a, isolate H77) (UniProt P27958)
[25] = target: E1E2 complex (H77) with E1 mutation G278A (HCV genotype 1a, isolate H77) (UniProt P27958)
[26] = target: E1E2 complex (H77) with E1 mutation G350A (HCV genotype 1a, isolate H77) (UniProt P27958)
[27] = target: E1E2 complex (H77) with E1 mutation Y309A (HCV genotype 1a, isolate H77) (UniProt P27958)
[28] = target: E1E2 complex (H77) with E1 mutation R195A (HCV genotype 1a, isolate H77) (UniProt P27958)
[29] = target: E1E2 complex (H77) with E1 mutation M322A (HCV genotype 1a, isolate H77) (UniProt P27958)

With mouse anti-E1 MAb A4 (antibody) the Binding relative to wt (%) [1] was 164%, the Binding relative to wt (%) [2] was 123% and the Binding relative to wt (%) [3] was 64%. The Binding relative to wt (%) [4] was 106%, the Binding relative to wt (%) [5] was 119% and the Binding relative to wt (%) [6] was 109%. For the same substance, the Binding relative to wt (%) [7] was 91%, the Binding relative to wt (%) [8] was 134% and the Binding relative to wt (%) [9] was 83%. For the same substance, the Binding relative to wt (%) [10] was 89%, the Binding relative to wt (%) [11] was 215% and the Binding relative to wt (%) [12] was 69%. For the same substance, the Binding relative to wt (%) [13] was 125%, the Binding relative to wt (%) [14] was 51% and the Binding relative to wt (%) [15] was 50%. It also gave a Binding relative to wt (%) [16] of 89%, a Binding relative to wt (%) [17] of 150% and a Binding relative to wt (%) [18] of 102%. For the same substance, the Binding relative to wt (%) [19] was 45%, the Binding relative to wt (%) [20] was 160% and the Binding relative to wt (%) [21] was 106%. For the same substance, the Binding relative to wt (%) [22] was 5%, the Binding relative to wt (%) [23] was 105% and the Binding relative to wt (%) [24] was 67%. The Binding relative to wt (%) [25] was 58%, the Binding relative to wt (%) [26] was 79% and the Binding relative to wt (%) [27] was 78%. The Binding relative to wt (%) [28] was 197% and the Binding relative to wt (%) [29] was 115%.
